Reference: the Human Domainome abundance scans (Beltran et al. 2025)
± gives the uncertainty stated by the source.

B1: RUN and FYVE domain-containing protein 1, residues 639 to 698; numbered along this chain, Q96T51 (parent)
chain: WLKDDEATHCRQCEKEFSISRRKHHCRNCGHIFCNTCSSNELALPSYPKPVRVCDSCHTL
B2: Integrator complex subunit 12, residues 155 to 213; numbered along this chain, Q96CB8 (parent)
chain: AMEMGLACVVCRQMMVASGNQLVECQECHNLYHRDCHKPQVTDKEANDPRLVWYCARCT

Variants of: B1
Test: abundance fitness (aPCA) (normalised: wild type 0, dead -1); higher = more abundant; growth selection in yeast, the domain comes from the species named
Details: Homo sapiens

Question: Which abundance fitness does the source give for NLKDDEATHCRQCEKEFSISRRKHHCRNCGHIFCNTCSSNELALPSYPKPVRVCDSCHTL [W1N] here?
Answer: The abundance fitness was 0.251 ± 0.099.

Question: Which abundance fitness does the source give for CLKDDEATHCRQCEKEFSISRRKHHCRNCGHIFCNTCSSNELALPSYPKPVRVCDSCHTL [W1C] here?
Answer: The abundance fitness was 0.094 ± 0.075.

Question: For TLKDDEATHCRQCEKEFSISRRKHHCRNCGHIFCNTCSSNELALPSYPKPVRVCDSCHTL [W1T], which abundance fitness is on record?
Answer: Its abundance fitness is -0.286 ± 0.19.

Question: With GLKDDEATHCRQCEKEFSISRRKHHCRNCGHIFCNTCSSNELALPSYPKPVRVCDSCHTL [W1G] as the variant, how does the abundance fitness read?
Answer: Its abundance fitness is 0.131 ± 0.067.

Question: For KLKDDEATHCRQCEKEFSISRRKHHCRNCGHIFCNTCSSNELALPSYPKPVRVCDSCHTL [W1K], which abundance fitness is on record?
Answer: Its abundance fitness is 0.249 ± 0.1.

Question: For MLKDDEATHCRQCEKEFSISRRKHHCRNCGHIFCNTCSSNELALPSYPKPVRVCDSCHTL [W1M], which abundance fitness is on record?
Answer: Its abundance fitness is 0.253 ± 0.057.

Question: For DLKDDEATHCRQCEKEFSISRRKHHCRNCGHIFCNTCSSNELALPSYPKPVRVCDSCHTL [W1D], which abundance fitness is on record?
Answer: The abundance fitness was 0.445 ± 0.13.

Question: For ALKDDEATHCRQCEKEFSISRRKHHCRNCGHIFCNTCSSNELALPSYPKPVRVCDSCHTL [W1A], which abundance fitness is on record?
Answer: The abundance fitness was -0.014 ± 0.17.

Question: For RLKDDEATHCRQCEKEFSISRRKHHCRNCGHIFCNTCSSNELALPSYPKPVRVCDSCHTL [W1R], which abundance fitness is on record?
Answer: The abundance fitness was -0.182 ± 0.077.

Question: With SLKDDEATHCRQCEKEFSISRRKHHCRNCGHIFCNTCSSNELALPSYPKPVRVCDSCHTL [W1S] as the variant, how does the abundance fitness read?
Answer: The abundance fitness was 0.121 ± 0.07.

Question: Which abundance fitness does the source give for LLKDDEATHCRQCEKEFSISRRKHHCRNCGHIFCNTCSSNELALPSYPKPVRVCDSCHTL [W1L] here?
Answer: The abundance fitness was -0.05 ± 0.064.

Question: With YLKDDEATHCRQCEKEFSISRRKHHCRNCGHIFCNTCSSNELALPSYPKPVRVCDSCHTL [W1Y] as the variant, how does the abundance fitness read?
Answer: The abundance fitness was 0.311 ± 0.084.

Question: Which abundance fitness does the source give for FLKDDEATHCRQCEKEFSISRRKHHCRNCGHIFCNTCSSNELALPSYPKPVRVCDSCHTL [W1F] here?
Answer: Its abundance fitness is -0.106 ± 0.14.

Question: With ELKDDEATHCRQCEKEFSISRRKHHCRNCGHIFCNTCSSNELALPSYPKPVRVCDSCHTL [W1E] as the variant, how does the abundance fitness read?
Answer: The abundance fitness was -0.138 ± 0.1.

Question: With VLKDDEATHCRQCEKEFSISRRKHHCRNCGHIFCNTCSSNELALPSYPKPVRVCDSCHTL [W1V] as the variant, how does the abundance fitness read?
Answer: The abundance fitness was -0.005 ± 0.055.

Question: With WCKDDEATHCRQCEKEFSISRRKHHCRNCGHIFCNTCSSNELALPSYPKPVRVCDSCHTL [L2C] as the variant, how does the abundance fitness read?
Answer: Its abundance fitness is -0.327 ± 0.069.

Question: Which abundance fitness does the source give for WFKDDEATHCRQCEKEFSISRRKHHCRNCGHIFCNTCSSNELALPSYPKPVRVCDSCHTL [L2F] here?
Answer: Its abundance fitness is -0.061 ± 0.043.

Question: For WGKDDEATHCRQCEKEFSISRRKHHCRNCGHIFCNTCSSNELALPSYPKPVRVCDSCHTL [L2G], which abundance fitness is on record?
Answer: Its abundance fitness is -0.074 ± 0.12.

Question: For WAKDDEATHCRQCEKEFSISRRKHHCRNCGHIFCNTCSSNELALPSYPKPVRVCDSCHTL [L2A], which abundance fitness is on record?
Answer: Its abundance fitness is 0.01 ± 0.077.

Question: For WIKDDEATHCRQCEKEFSISRRKHHCRNCGHIFCNTCSSNELALPSYPKPVRVCDSCHTL [L2I], which abundance fitness is on record?
Answer: Its abundance fitness is -0.104 ± 0.1.

Question: Which abundance fitness does the source give for WDKDDEATHCRQCEKEFSISRRKHHCRNCGHIFCNTCSSNELALPSYPKPVRVCDSCHTL [L2D] here?
Answer: Its abundance fitness is -0.006 ± 0.093.

Question: With WHKDDEATHCRQCEKEFSISRRKHHCRNCGHIFCNTCSSNELALPSYPKPVRVCDSCHTL [L2H] as the variant, how does the abundance fitness read?
Answer: The abundance fitness was -0.211 ± 0.095.

Variants of: B2
Test: as above
Details: Homo sapiens

Question: Which abundance fitness does the source give for ALEMGLACVVCRQMMVASGNQLVECQECHNLYHRDCHKPQVTDKEANDPRLVWYCARCT [M2L] here?
Answer: Its abundance fitness is -0.003 ± 0.038.

Question: For AMEMGLACVVCRQMMVASGNQLVELQECHNLYHRDCHKPQVTDKEANDPRLVWYCARCT [C25L], which abundance fitness is on record?
Answer: The abundance fitness was -0.866 ± 0.09.

Question: For AMEMGLACVVCRQMMVASGNQLVEQQECHNLYHRDCHKPQVTDKEANDPRLVWYCARCT [C25Q], which abundance fitness is on record?
Answer: The abundance fitness was -0.458 ± 0.18.

Question: With IMEMGLACVVCRQMMVASGNQLVECQECHNLYHRDCHKPQVTDKEANDPRLVWYCARCT [A1I] as the variant, how does the abundance fitness read?
Answer: The abundance fitness was -0.049 ± 0.18.

Question: For CMEMGLACVVCRQMMVASGNQLVECQECHNLYHRDCHKPQVTDKEANDPRLVWYCARCT [A1C], which abundance fitness is on record?
Answer: The abundance fitness was -0.099 ± 0.12.

Question: With AMEMGLACVVCRQMMVASGNQLVECQECHNLYNRDCHKPQVTDKEANDPRLVWYCARCT [H33N] as the variant, how does the abundance fitness read?
Answer: Its abundance fitness is -0.584 ± 0.04.

Question: Which abundance fitness does the source give for AMEMGLACVVCRQAMVASGNQLVECQECHNLYHRDCHKPQVTDKEANDPRLVWYCARCT [M14A] here?
Answer: Its abundance fitness is 0.06 ± 0.043.

Question: Which abundance fitness does the source give for AMEMGLACVVCRQGMVASGNQLVECQECHNLYHRDCHKPQVTDKEANDPRLVWYCARCT [M14G] here?
Answer: Its abundance fitness is 0.115 ± 0.033.

Question: For AMEMGLACVVCRQMMVASGNQLVECQECHNLYHRGCHKPQVTDKEANDPRLVWYCARCT [D35G], which abundance fitness is on record?
Answer: Its abundance fitness is 0.013 ± 0.033.

Question: For AMEMGLACVVCRQMMVASGNQLVECQECHNLYHRVCHKPQVTDKEANDPRLVWYCARCT [D35V], which abundance fitness is on record?
Answer: Its abundance fitness is -0.083 ± 0.032.

Question: For AMEMGLACVVCRQMMVASGNQLVECQECHNLYHRDCHKPQVTDKEWNDPRLVWYCARCT [A46W], which abundance fitness is on record?
Answer: The abundance fitness was -0.063 ± 0.052.

Question: Which abundance fitness does the source give for AMEMGLACVVCRQMMVASGNQLVECQECHNLYHRDCHKPQVTDKERNDPRLVWYCARCT [A46R] here?
Answer: The abundance fitness was -0.089 ± 0.039.

Question: For AMEMGLACVVCRQMMVASGNQLVECQECHNLYHRDCHKPQVTDKEENDPRLVWYCARCT [A46E], which abundance fitness is on record?
Answer: The abundance fitness was -0.061 ± 0.053.

Question: For AMEMGLACVVCRQMMVASGNQLVECQECHNLYHRDCHPPQVTDKEANDPRLVWYCARCT [K38P], which abundance fitness is on record?
Answer: The abundance fitness was -0.309 ± 0.05.

Question: For AMEMGLACVVCRQMMVASGNQLVECQQCHNLYHRDCHKPQVTDKEANDPRLVWYCARCT [E27Q], which abundance fitness is on record?
Answer: The abundance fitness was -0.096 ± 0.083.

Question: For AMEMLLACVVCRQMMVASGNQLVECQECHNLYHRDCHKPQVTDKEANDPRLVWYCARCT [G5L], which abundance fitness is on record?
Answer: The abundance fitness was -0.216 ± 0.038.

Question: Which abundance fitness does the source give for AMEMALACVVCRQMMVASGNQLVECQECHNLYHRDCHKPQVTDKEANDPRLVWYCARCT [G5A] here?
Answer: The abundance fitness was -0.001 ± 0.036.

Question: With AMEMHLACVVCRQMMVASGNQLVECQECHNLYHRDCHKPQVTDKEANDPRLVWYCARCT [G5H] as the variant, how does the abundance fitness read?
Answer: The abundance fitness was 0.026 ± 0.042.

Question: With AMEMGLACVVCRQMMVASGNQLVECQECHNLYHRDCHKPQVEDKEANDPRLVWYCARCT [T42E] as the variant, how does the abundance fitness read?
Answer: The abundance fitness was -0.066 ± 0.046.

Question: With AMEMGLACVVCRQMMVASGVQLVECQECHNLYHRDCHKPQVTDKEANDPRLVWYCARCT [N20V] as the variant, how does the abundance fitness read?
Answer: The abundance fitness was -0.049 ± 0.032.

Question: Which abundance fitness does the source give for AMEMGLACVVCRQMMVASGNQLVECQENHNLYHRDCHKPQVTDKEANDPRLVWYCARCT [C28N] here?
Answer: The abundance fitness was -0.561 ± 0.039.

Question: With AMEMGLACVVCRQMMVASGNQLVECQECHNLYHRDCHKPQVTDKEANDDRLVWYCARCT [P49D] as the variant, how does the abundance fitness read?
Answer: The abundance fitness was 0.026 ± 0.079.

Question: With AMSMGLACVVCRQMMVASGNQLVECQECHNLYHRDCHKPQVTDKEANDPRLVWYCARCT [E3S] as the variant, how does the abundance fitness read?
Answer: Its abundance fitness is -0.038 ± 0.031.
